In patent US10030233B2, “Modified P450 reductase with N-terminal deletions and endoplasmic reticulum retention tag” (DE MONTFORT UNIVERSITY, priority 2013, dated 2018):

Key:
[1] = MTT-based cytochrome P450 reductase assay on yeast microsomes; type: biochemical; settings: relative to hRD = 1; 100 μg yeast microsomes, A610
Source text: The enzyme NADPH-cytochrome P450 reductase mediates the transfer of electrons from NADPH to cytochrome P450, other microsomal proteins and cytochrome c. It also catalyses the reduction of many drugs and other compounds such as potassium ferricyanide, 2,6-dichloroindopheonl, 1,1-diphenyl-2-picrylhydrazyl (DPPH), and mitomycin c. Tetrazolium salts are used extensively in cell proliferation and cytotoxicity assays, enzyme assays, histochemical procedures and bacteriological screening. […] The compound 3-(4,5-dimethylthiazol-2-yl)-2,5-diphenyltetrazolium bromide (MTT) is a monotetrazolium salt. The reduction of MTT is one of the most frequently used methods for measuring cell proliferation and cytotoxicity. Reduction of MTT by P450 reductase has been assessed as a method for monitoring yeast produced recombinant P450 reductase activity and the protocol was developed on the procedure published by Yim S-K, et al (Yim S-K., Y. C.-H. Ahn T., Hung H-C and Pan J-G. A continuous Spectrophotometric assay for NADPH-cytochrome P450 reductase activity using 3-(4,5 Dimethylthiazol-2-yl)-2,5-diphenyltetrazolium Bromide. Journal of Biology and Molecular Biology 38: 366-369, 2005). The principal advantage of this substance is that the reduction of MTT can be assayed directly in the reaction medium by a continuous spectrophotometirc method. The electrons released from NADPH by P450 reductase are transferred to MTT, and then the amounts of reduced MTT is assessed spectrophotometrically by measuring the increase in A610 values that is due to the formation of blue formazan. The extinction coefficient of MTT is 11.3 mM^−1 cm^−1. This method offers the advantages of short analysis time with the use of a relatively cheap commercial substrate. The classical assay uses recombinant cytochrome c as a substrate. […]
Disposable cuvettes were used for this experiment. […] The cuvette was quickly placed into the spectrophotometer together with the blank cuvette and its contents (that contained all components as in the other test cuvette but not the microsomes or cell supernatant) and the increase in the values at 610 nm was measured for a time period of 400 seconds. The electrons released from NADPH by recombinant P450 reductase enzyme were transferred to MTT, and the ability to reduce MTT was assessed spectrophotometrically by measuring the increase in A610 values as a result of the formation of blue formazan. The rate of MTT reduction was calculated from the change in A610 values using an extinction coefficient of 11.3 mM^−1 cm^−1 and the formula, ΔA610/min/11.3*0.1 mg/ml=μmole reduced MTT/min/mg of protein.

CYP2D6 = biological target: T1, CYP2D6 (Homo sapiens, UniProt P10635, V374M); type: biochemical
T1 construct: A 1506 bp BamHI-XbaI fragment containing the human CYP2D6 gene; made in house; host or cells: Saccharomyces cerevisiae W303B, microsomes
T1 sequence (P10635 whole entry V374M, the tested form may be a part): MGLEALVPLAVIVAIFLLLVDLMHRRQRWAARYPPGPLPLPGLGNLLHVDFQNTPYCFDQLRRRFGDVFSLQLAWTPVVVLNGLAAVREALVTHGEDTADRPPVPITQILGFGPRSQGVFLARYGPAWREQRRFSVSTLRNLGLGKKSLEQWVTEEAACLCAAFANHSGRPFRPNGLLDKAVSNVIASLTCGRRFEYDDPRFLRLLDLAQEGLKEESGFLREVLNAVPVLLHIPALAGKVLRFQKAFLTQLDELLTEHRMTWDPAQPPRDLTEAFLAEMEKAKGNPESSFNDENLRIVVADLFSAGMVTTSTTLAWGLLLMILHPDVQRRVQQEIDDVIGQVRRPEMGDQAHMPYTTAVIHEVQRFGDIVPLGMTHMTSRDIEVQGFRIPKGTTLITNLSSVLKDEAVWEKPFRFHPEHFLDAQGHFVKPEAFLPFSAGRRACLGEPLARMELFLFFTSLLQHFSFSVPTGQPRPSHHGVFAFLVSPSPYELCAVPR

Molecule | μM of reduced MTT/min/mg of protein (Relative Rates) [1] | pmoles of CYP2D6/mg of total protein (Relative Amounts) (CYP2D6)
ΔN1hRD-M: human P450 reductase lacking N-terminal 24 amino acids, with C-terminal 12-amino acid c-myc tag; described in WO 2007/129050; gene SEQ ID NO: 5 (protein, delN1hRD-M) MTDMILFSLIVGLLTYWFLFRKKKEEVPEFTKIQTLTSSVRESSFVEKMKKTGRNIIVFYGSQTGTAEEFANRLSKDAHRYGMRGMSADPEEYDLADLSSLPEIDNALVVFCMATYGEGDPTDNAQDFYDWLQETDVDLSGVKFAVFGLGNKTYEHFNAMGKYVDKRLEQLGAQRIFELGLGDDDGNLEEDFITWREQFWPAVCEHFGVEATGEESSIRQYELVVHTDIDAAKVYMGEMGRLKSYENQKPPFDAKNPFLAAVTTNRKLNQGTERHLMHLELDISDSKIRYESGDHVAVYPANDSALVNQLGKILGADLDVVMSLNNLDEESNKKHPFPCPTSYRTALTYYLDITNPPRTNVLYELAQYASEPSEQELLRKMASSSGEGKELYLSWVVEARRHILAILQDCPSLRPPIDHLCELLPRLQARYYSIASSSKVHPNSVHICAVVVEYETKAGRINKGVATNWLRAKEPAGENGGRALVPMFVRKSQFRLPFKATTPVIMVGPGTGVAPFIGFIQERAWLRQQGKEVGETLLYYGCRRSDEDYLYREELAQFHRDGALTQLNVAFSREQSHKVYVQHLLKQDREHLWKLIEGGAHIYVCGDARNMARDVQNTFYDIVAELGAMEHAQAVDYIKKLMTKGRYSLDVWSSSEQKLISEEDLNGSRL | 2.5 ± 10% | 4 ± 10%
hRD: wild-type human P450 reductase, full length, control (protein, listed as Homo sapiens) MGDSHVDTSSTVSEAVAEEVSLFSMTDMILFSLIVGLLTYWFLFRKKKEEVPEFTKIQTLTSSVRESSFVEKMKKTGRNIIVFYGSQTGTAEEFANRLSKDAHRYGMRGMSADPEEYDLADLSSLPEIDNALVVFCMATYGEGDPTDNAQDFYDWLQETDVDLSGVKFAVFGLGNKTYEHFNAMGKYVDKRLEQLGAQRIFELGLGDDDGNLEEDFITWREQFWPAVCEHFGVEATGEESSIRQYELVVHTDIDAAKVYMGEMGRLKSYENQKPPFDAKNPFLAAVTTNRKLNQGTERHLMHLELDISDSKIRYESGDHVAVYPANDSALVNQLGKILGADLDVVMSLNNLDEESNKKHPFPCPTSYRTALTYYLDITNPPRTNVLYELAQYASEPSEQELLRKMASSSGEGKELYLSWVVEARRHILAILQDCPSLRPPIDHLCELLPRLQARYYSIASSSKVHPNSVHICAVVVEYETKAGRINKGVATNWLRAKEPAGENGGRALVPMFVRKSQFRLPFKATTPVIMVGPGTGVAPFIGFIQERAWLRQQGKEVGETLLYYGCRRSDEDYLYREELAQFHRDGALTQLNVAFSREQSHKVYVQHLLKQDREHLWKLIEGGAHIYVCGDARNMARDVQNTFYDIVAELGAMEHAQAVDYIKKLMTKGRYSLDVWS | 1 | 1
ΔN2hRD-HDEL: human P450 reductase lacking the 54-amino acid membrane anchoring region, with C-terminal yeast ER retention signal HDEL (protein, delN2hRD-HDEL, human P450 reductase lacking the 54-amino acid membrane anchoring region, with C-terminal yeast ER retention signal HDEL) MTKIQTLTSSVRESSFVEKMKKTGRNIIVFYGSQTGTAEEFANRLSKDAHRYGMRGMSADPEEYDLADLSSLPEIDNALVVFCMATYGEGDPTDNAQDFYDWLQETDVDLSGVKFAVFGLGNKTYEHFNAMGKYVDKRLEQLGAQRIFELGLGDDDGNLEEDFITWREQFWPAVCEHFGVEATGEESSIRQYELVVHTDIDAAKVYMGEMGRLKSYENQKPPFDAKNPFLAAVTTNRKLNQGTERHLMHLELDISDSKIRYESGDHVAVYPANDSALVNQLGKILGADLDVVMSLNNLDEESNKKHPFPCPTSYRTALTYYLDITNPPRTNVLYELAQYASEPSEQELLRKMASSSGEGKELYLSWVVEARRHILAILQDCPSLRPPIDHLCELLPRLQARYYSIASSSKVHPNSVHICAVVVEYETKAGRINKGVATNWLRAKEPAGENGGRALVPMFVRKSQFRLPFKATTPVIMVGPGTGVAPFIGFIQERAWLRQQGKEVGETLLYYGCRRSDEDYLYREELAQFHRDGALTQLNVAFSREQSHKVYVQHLLKQDREHLWKLIEGGAHIYVCGDARNMARDVQNTFYDIVAELGAMEHAQAVDYIKKLMTKGRYSLDVWSHDEL | 3.5 ± 10% | 6 ± 10%
ΔN1hRD-HDEL: human P450 reductase lacking N-terminal 24 amino acids, with C-terminal yeast ER retention signal HDEL (protein, delN1hRD-HDEL, human P450 reductase lacking N-terminal 24 amino acids, with C-terminal yeast ER retention signal HDEL) MTDMILFSLIVGLLTYWFLFRKKKEEVPEFTKIQTLTSSVRESSFVEKMKKTGRNIIVFYGSQTGTAEEFANRLSKDAHRYGMRGMSADPEEYDLADLSSLPEIDNALVVFCMATYGEGDPTDNAQDFYDWLQETDVDLSGVKFAVFGLGNKTYEHFNAMGKYVDKRLEQLGAQRIFELGLGDDDGNLEEDFITWREQFWPAVCEHFGVEATGEESSIRQYELVVHTDIDAAKVYMGEMGRLKSYENQKPPFDAKNPFLAAVTTNRKLNQGTERHLMHLELDISDSKIRYESGDHVAVYPANDSALVNQLGKILGADLDVVMSLNNLDEESNKKHPFPCPTSYRTALTYYLDITNPPRTNVLYELAQYASEPSEQELLRKMASSSGEGKELYLSWVVEARRHILAILQDCPSLRPPIDHLCELLPRLQARYYSIASSSKVHPNSVHICAVVVEYETKAGRINKGVATNWLRAKEPAGENGGRALVPMFVRKSQFRLPFKATTPVIMVGPGTGVAPFIGFIQERAWLRQQGKEVGETLLYYGCRRSDEDYLYREELAQFHRDGALTQLNVAFSREQSHKVYVQHLLKQDREHLWKLIEGGAHIYVCGDARNMARDVQNTFYDIVAELGAMEHAQAVDYIKKLMTKGRYSLDVWSHDEL | 3 ± 10% | 6 ± 10%
